Laboratory results reported in PMC9672406.
Positions count from the first letter of the chain named. Numbers in names are those of the source.

B1: ScMqnA (chorismate dehydratase MqnA) (Streptomyces coelicolor A3(2)) (protein)
chain: MDNSRTRPRVGHIQFLNCLPLYWGLARTGTLLDFELTKDTPEKLSEQLVRGDLDIGPVTLVEFLKNADDLVAFPDIAVGCDGPVMSCVIVSQVPLDRLDGARVALGSTSRTSVRLAQLLLSERFGVQPDYYTCPPDLSLMMQEADAAVLIGDAALRANMIDGPRYGLDVHDLGALWKEWTGLPFVFAVWAARRDYAEREPVITRKVHEAFLASRNLSLEEVEKVAEQAARWEAFDEDTLAKYFTTLDFRFGAPQLEAVTEFARRVGPTTGFPADVKVELLKP
B2: ScMqnA (chorismate dehydratase MqnA) (Streptomyces coelicolor A3(2); N17A) (protein)
chain: B1 chain with N17A
B3: ScMqnA (chorismate dehydratase MqnA) (Streptomyces coelicolor A3(2); Y242F) (protein)
chain: B1 chain with Y242F

Substrate: C=C(O[C@@H]1C=C(C(=O)O)C=C[C@H]1O)C(=O)O
Assay: purified protein
Conditions: 100 mM Tris/HCl pH 7.5, 22 °C, 5 min, 0.05 μM enzyme

In order of falling Km:
1. B3  377 ± 106 µM
2. B2  257 ± 87 µM
3. B1  121 ± 38 µM

In order of rising Vmax:
1. B1  0.458 µmol/min/mg
2. B2  0.473 µmol/min/mg
3. B3  1.06 µmol/min/mg

In order of falling kcat:
1. B3  0.56 ± 0.06 s⁻¹
2. B2  0.25 ± 0.02 s⁻¹
3. B1  0.24 ± 0.02 s⁻¹
